# Assay results as given in patent US12269880B2, “LAG3 binding peptides” (Leidos, Inc., priority 2019, dated 2025).
# Several values for one entry are separate records, joined by “and”; a condition that tells them apart may be missing. Equal entries are not always repeated.
# Legend:
# [1] = target: T1, soluble recombinant human LAG3 (Homo sapiens, UniProt P18627); assay: Clonal phage ELISA after phage display bio-panning; assay type: binding; settings: for Clonal Phase ELISA uncoated signal: uncoated (background)
# T1 construct: soluble recombinant human LAG3
# T1 sequence (P18627 23-450 limits assumed): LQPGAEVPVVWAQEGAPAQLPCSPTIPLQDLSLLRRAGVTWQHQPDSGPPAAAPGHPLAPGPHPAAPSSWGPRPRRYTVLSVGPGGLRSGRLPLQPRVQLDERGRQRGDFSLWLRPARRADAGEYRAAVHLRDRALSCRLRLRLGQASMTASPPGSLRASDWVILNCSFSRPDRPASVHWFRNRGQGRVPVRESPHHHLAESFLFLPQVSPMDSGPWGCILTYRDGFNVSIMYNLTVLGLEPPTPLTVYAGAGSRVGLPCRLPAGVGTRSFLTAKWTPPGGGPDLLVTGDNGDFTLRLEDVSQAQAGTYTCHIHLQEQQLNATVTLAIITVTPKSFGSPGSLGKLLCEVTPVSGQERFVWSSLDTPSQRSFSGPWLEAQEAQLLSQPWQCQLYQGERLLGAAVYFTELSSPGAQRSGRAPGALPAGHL
# From the text: The TriCo-20™, TriCo-16™, Ph.D.-12™, and Ph.D. C7™ Phage Display Peptide Libraries (Creative Biolabs, 45-1 Ramsey Road, Shirley, NY 11967) were screened by performing several rounds of bio-panning to identify binders of soluble recombinant human LAG3.
# [2] = target: T2, LAG3/MHC-II interaction (Homo sapiens, UniProt P18627); assay: HTRF LAG3/MHC-II binding assay (Cisbio)
# T2 construct: purchased Cisbio US Inc
# T2 sequence (P18627 23-450 limits assumed): T1 sequence (P18627 23-450 limits assumed)
# From the text: FIG. 2 is a graph showing the results of a homogeneous time-resolved fluorescence (HTRF) assay for peptide LAG3-11. Reference Ab-LAG3 is an anti-LAG3 antibody. OVA, the ovalbumin (OVA) peptide (ISQAVHAAHAEINEAGR, SEQ ID NO:8). “HTRF ratio” is the emission at 665 nm (acceptor)/emission at 620 nm (donor) multiplied by a factor or 10^4.
# A homogeneous time-resolved fluorescence (HTRF) LAG3/MHC-II binding assay (Cisbio US Inc.) was used to measure the interaction between MHC-II and LAG3 in the presence of peptides. In this assay, the interaction between Tag1-LAG3 and Tag2-MHC-II is detected by using anti-Tag1-Terbium (HTRF donor) and anti-Tag2-XL665 (HTRF acceptor). When the donor and acceptor antibodies are brought into close proximity due to LAG3 and MHC-II binding, excitation of the donor antibody triggers fluorescent resonance energy transfer (FRET) towards the acceptor antibody, which in turn emits specifically at 665 nm. This specific signal is directly proportional to the extent of LAG3/MHC-II interaction. Thus, an agent that blocks the interaction between LAG3 and MHC-II will cause a reduction in HTRF ratio.
# An anti-human LAG3 antibody (Novoprotein #GMP-A092, Lot 0331158, 500 nM) was tested in the assay at an eleven-point, serially diluted semi-log dose response curve starting at 100 nM and served as a positive control. The ovalbumin peptide was used as a negative control. Peptides were reconstituted at a concentration of 20 mM in […] and tested at an eleven-point dose response curve starting at 100 µM followed by 4-fold dilutions. […]
# [3] = target: T3, human LAG3/FGL1 (Homo sapiens, UniProt P18627); assay: Human LAG3/FGL1 TR-FRET binding assay (BPS Bioscience)
# T3 construct: purchased BPS Bioscience
# T3 sequence (P18627 23-450 limits assumed): T1 sequence (P18627 23-450 limits assumed)
# Experimental: The peptides were tested using a human LAG3/FGL1 TR-FRET binding assay (BPS Bioscience) carried out according to the manufacturer's instructions.
# Peptide stocks of LAG3-11, LAG3-42, LAG3-48, LAG3-51, LAG3-54, LAG3-56, LAG3-60 and OVA were prepared at 1 mM followed by a 1:5 dilution in plate reactions. LAG3-11 and OVA were tested at 200, 50, 13, 3, 0.8, 0.2, 0.05, and 0.01 μM. The other peptides were tested at 200, 50, 13, and 3 μM. A neutralizing anti-human LAG3 antibody (BPS Bioscience Cat. #71219) was used as a positive control.
# Reaction mixes were incubated 1 hr at RT before development. After development, plate was read in a Tecan M1000 TR-FRET instrument. Percent activity was calculated as follows: % Activity=100×[(sample−minimum)/(maximum−minimum)]
# [4] = LOG [Compound] M tested for peptide −4, single replicates
# [5] = LOG [Compound] M tested for peptide −4.60206, single replicates
# [6] = LOG [Compound] M tested for peptide −5.20412, single replicates
# [7] = LOG [Compound] M tested for peptide −5.80618, single replicates
# [8] = LOG [Compound] M tested for peptide −6.40824
# [9] = LOG [Compound] M tested for peptide −7.0103, single replicates
# [10] = LOG [Compound] M tested for peptide −7.61236, single replicates
# [11] = LOG [Compound] M tested for peptide −8.21442, single replicates
# [12] = LOG [Compound] M tested for peptide −8.81648, single replicates
# [13] = LOG [Compound] M tested for peptide −9.41854, single replicates
# [14] = LOG [Compound] M tested for peptide −10.0206
# [15] = LOG [Compound] M tested for peptide −10.6227
Sequence,Clonal Phase ELISA coated signal [1],Clonal Phase ELISA uncoated signal [1],"HTRF ratio [2, 4]","HTRF ratio [2, 5]","HTRF ratio [2, 6]","HTRF ratio [2, 7]","HTRF ratio [2, 8]","HTRF ratio [2, 9]","HTRF ratio [2, 10]","HTRF ratio [2, 11]","HTRF ratio [2, 12]","HTRF ratio [2, 13]","HTRF ratio [2, 14]","HTRF ratio [2, 15]",inhibition of the interaction between human LAG3 and FGL1 [3]
ACGPGSFGDCGGG (LAG3-54 peptide),0.417,0.103,2283 and 4122 and 3912,7055 and 6709 and 6833,8691 and 8561 and 8512,9156 and 9205 and 9142,9161 and 9048 and 8773,9105 and 9141 and 9004,8674 and 9031 and 9075,8996 and 8645 and 8867,8130 and 8918 and 8630,8942 and 8930 and 8755,8344 and 9203 and 8748,9100 and 9262 and 8921,–
DWNFQQWDWKKHNHLDSHVV (LAG3-42 peptide),0.378,0.084,7234 and 7037 and 7142,8389 and 8097 and 8045,8629 and 8765 and 8733,9281 and 8905 and 8572,9189 and 8945 and 8784,9432 and 8649 and 9072,9209 and 8787 and 9109,9407 and 8205 and 9247,9579 and 9134 and 8703,9137 and 8550 and 8958,8860 and 8937 and 8907,9016 and 8914 and 9210,–
FYSPNHEEYHDWNVDSSVNE (LAG3-48 peptide),0.227,0.094,3507 and 2809 and 3028,5662 and 5088 and 5724,8301 and 8213 and 8200,8663 and 9082 and 9045,9264 and 9194 and 9135,8727 and 9103 and 9142,8936 and 9357 and 9297,9082 and 9139 and 9095,8708 and 9153 and 8757,8564 and 8922 and 8442,8765 and 9097 and 8602,8663 and 8904 and 9303,–
HESGSVPHPWQFFTHYVS (LAG3-60 peptide),0.330,0.091,2986 and 3079,5934 and 5959 and 5991,8233 and 7988 and 7918,8525 and 8398 and 8342,8614 and 8929 and 9290,9142 and 8745 and 8892,8987 and 8983 and 9320,9275 and 8931 and 9366,9059 and 9248 and 8887,8772 and 8594 and 9169,8924 and 8349 and 8904,8795 and 9240 and 9350,–
HIQNWSYWLNQDMMNQQVWKS (LAG3-56 peptide),0.529,0.101,4194 and 4083 and 4373,6880 and 7058 and 7142,8218 and 8349 and 8414,8791 and 8658 and 8464,9040 and 9185 and 9082,8147 and 9275 and 9111,8935 and 9303 and 9093,8765 and 9591 and 9178,8856 (2×) and 8869,9050 and 9029 and 9176,9022 and 8887 and 8540,8885 and 9204 and 8617,inhibit the interaction between human LAG3 and FGL1
"ISQAVHAAHAEINEAGR (listed as Gallus gallus) [OVA peptide, reference compound]",–,–,7154 and 8492 and 8909,8449 and 8472 and 8683,9015 and 8616 and 8579,9180 and 8833 and 9374,9189 and 8634 and 9280,8380 and 8654 and 8970,9015 and 8776 and 8568,9219 and 8624 and 8987,8684 and 8724 and 8639,8625 and 8396 and 8788,8356 and 8986 and 8457,8633 and 9086 and 8892,–
KVWQVPQDTQHWLSPNFYSV (LAG3-51 peptide),0.234,0.076,3058 and 2773 and 2875,6649 and 6521 and 6468,7908 and 8071 and 8322,8723 and 8946 and 8748,9265 and 8583 and 8662,8098 and 9193 and 9017,8762 and 9360 and 9173,8950 and 8608 and 8357,8834 and 8187 and 8957,8867 and 8809 and 8630,8784 and 8779 and 8696,9082 and 9104 and 9298,–
